Test results as given in patent US20240218057A1 (ROCKEFELLER UNIVERSITY, published 2024).

B1: C876 (antibody, V domains shown)
VH: EVQLVESGGGLIQPGGSLRLSCAASEFVISRNYMSWVRQAPKKGLEWVSVLYSGGSTFYADSVKGRFTISRDDSRNMLYLQMNSLRAEDTAVYYCVRDFGEFYFDYWGQGVLVTVSS
VL: EIVMTQSPTTLSVSPGERATLSCRASQSLSSNLAWYQQKPGQAPRLLIFGVSTRATGIPARFSGSGSGTEFTLTISSLQSEDFAVYYCQQYYSGPRTFGQGTKVEIK
notes: IgG; V domains only
B2: C878 (antibody, V domains shown)
VH: EVQLVESGGGLVQPGGSLRLSCSVSGFTFSNFAMHWVRQAPGKGLEFVSGVSSDGDITDYADSVKGRFTISRDNSKNTLYLQMSSLRPEDTAVYYCVKDKEHSTMVTIFDFWGQGTLVTVSS
VL: DIQMTQSPSSLSASVGDRVTITCRASQSISSFLNWYQQKPGKAPKLLIYAASSLQSGVPSRFSGRGSGADFTLTITSLQPEDFATYFCQQSYSSHLTFGPGTKVDIK
notes: IgG; V domains only
B3: C893 (antibody, V domains shown)
VH: EVQLVQSGAEVKKPGESLKISCKGSGYYFTRQWIGWVRQMPGKGLEWMGIIYPGDSDTRYSPSFQGQVTISADKSISTAYLQWSSLKASDTAMYYCARGGWDPAEYSSSGGGGLDAFDIWGQGTMVTVSS
VL: EIVLTQSPATLSLSPGERATLSCRASQSVSSYLAWYQQRPGRAPRLLIYDASNRATGIPGRFSGSGSGTDFSLTISSLEPEDFAVYYCQQRSSWPLTFGQGTRLEIK
notes: IgG; V domains only
B4: C895 (antibody, V domains shown)
VH: QVQLVQSGAEVKKPGSSVKVSCKASGGTFTSYAFSWVRQAPGQGLEWMGGIIPIFGTTNYAQKFQGRVTITADESTSTAYMELSSLRSEDTAVYYCARPEGCGSRTSCTPGAYYYGMDVWGQGTTVTVSS
VL: EIVLTQSPATLSLSPGERATLSCRASQSVGSYLAWYQQKPGQAPRLLIYDASNRATGIPARFSGSGSGTDFTLTISSLEPEDFAFYFCQQRNSWPPEYSFGQGTKLEIK
notes: IgG; V domains only
B5: C896 (antibody, V domains shown)
VH: QVQLVESGGGVVQPGRSLKLSCAASGFTFKTYGMHWVRQAPGKGLEWVAVISYDGTNDYYADSVKGRFTVSRDNSKNTLYLQMNSPRTEDTAVYYCAKAGGPYYYDTSGSFWYFDYWGQGTLVTVSS
VL: DIQMTQSPSSLSASVGDRVTITCRASQTISSYLNWYQQKSGKAPELLVYDASNLESGVPSRFSGSGSGTDFTLTISSLQPEDFATYYCQQSYSFGPGTKVDIK
notes: IgG; V domains only
B6: C897 (antibody, V domains shown)
VH: QVQLVESGGGVVQPGRSLRLSCAASGFIFSHYGMHWVRQAPGKGLEWVAVILYDGSDQYYADSVKGRFTISRDNSKNTLFLEMNSLRLEDTAVYYCAKGGGQYCSHGNCYLNYFDYWGQGALVTVSS
VL: DIQMTQSPSSLSASVGDRVTITCQASQDIRDNLNWYQQKPGKAPQLLIYDASNLQPGVPSRFSGSGSGTHFTFTISRLQPEDIATYFCQQYANLPTTFGPGTKVDIK
notes: IgG; V domains only
B7: C898 (antibody, V domains shown)
VH: QVQLVQSGAEVKKPGSSVKVSCKASGGPFSSYAFTWVRQAPGQGLEWMGGIIATFGTVNYAQKFQGRVTITADEFTSTVNMELSSLRSDDTAVYYCARRDCSTTSCYDEVLYRLVDWGQGTLVTVSS
VL: EIVLTQSPGTLSLSPGERATLSCRASQSVNSDYLAWYKQKPGQAPRLLIYGTSSRATGIPDRFSGSGSGTDFTLTISRLEPDDFAVYYCQQYGNSPRTFGQGTKVEIK
notes: IgG; V domains only
B8: C899 (antibody, V domains shown)
VH: EVQLVESGGGLVKPGGSLRLSCAASGFTFSNAWMSWVRQAPGKGLEWVGRIKSKTDAETTDYAAPVRGRFTISRDNSKNTLYLEMNSLKTEDTAVYYCTTDADYSDSSGYYVTYYFEYWGQGSLVTVSS
VL: QSALTQPRSVSGSPGQSVTISCTGSNSDVGGYNYVSWYQQHPGKAPKLVIYDVSLRPSGVPDRFSGSKSGITASLTISGLQPEDEAHYYCCSFAGTYTPWVFGGGTRLTVL
notes: IgG; V domains only

Target: T1, SARS-COV-2 RBD (SARS-COV-2, UniProt P0DTC2 319-539)
T1 construct: also called WT RBD
Assay: ELISA, RBD coated

Binder	EC50 [ng/mL]
B1	3.53
B2	2.88
B3	3.73
B4	2.21
B5	4.3
B6	1.88
B7	7.6
B8	2.23
